“Also recorded” adds a separate entry of the source.
Experiments:
oxLDL = target: T1, oxLDL (Homo sapiens, UniProt P04114); assay: Co-incubation with oxLDL, SDS-PAGE separation, Coomassie brilliant blue staining; type: binding
T1 construct: purchased Solarbio H7980
Procedure: (§1) Experimental materials: sDSS1 protein, sDSS1 mutant protein 1 (sDSS1-M1, SEQ ID NO: 15), sDSS1 mutant protein 2 (sDSS1-M2, SEQ ID NO: 16), oxidized low density lipoprotein (oxLDL) (Solarbio, Article No.: H7980); low density lipoprotein (LDL) (Solarbio, Article No.: H7960).
(§2) Experimental method: 2 μg of oxLDL or LDL was mixed with 6 μg of sDSS1 protein or 10 μg of sDSS1 protein in a 1.5 ml EP tube in the presence of 20 mM sodium acetate/acetic acid buffer (pH 4.5) or 20 mM phosphate buffer (pH 7.2) respectively, and incubated at 37° C. for 12 h. A loading buffer was added in the incubated product and evenly mixed, and the obtained mixture was denatured at 100° C. for 10 min to prepare a loading sample. The resulting sample was subjected to electrophoretic separation via polyacrylamide gel electrophoresis (SDS-PAGE). After separation, the SDS-PAGE gel was stained with Coomassie brilliant blue to display protein strips. The sDSS1-M1 or sDSS1-M2 protein was respectively mixed and incubated with oxLDL, and treated in the same way. 15 μL of the sample was used for SDS-PAGE electrophoresis separation.

LDL = assay: Co-incubation with LDL, SDS-PAGE separation, Coomassie brilliant blue staining; type: binding; details: 12 h
Procedure: as §1, §2

[1] = test system: human umbilical vein endothelial cells (HUVECs); assay: Uptake of DiL-oxLDL by HUVEC cells (fluorescence microscope, flow cytometry); type: cell-based; details: 10 μg/ml DiL-oxLDL, 5 h
Procedure: Experimental materials: sDSS1 protein, DiL-oxLDL (Thermo Fisher technology, Article No.: L34358), human umbilical vein endothelial cell (HUVEC) (PromoCell, Article No.: C-12200).
Experimental method: HUVEC cells were inoculated into a 6-well plate with 300000 cells per well. After 24 h of adherence, 1.5 ml 10 μg/ml DiL-oxLDL was added, or 1.5 ml 10 μg/ml DiL-oxLDL was added together with 2 μg/ml, 5 μg/ml, 10 μg/ml or 20 μg/ml of the sDSS1 protein. After incubation for 5 h in an incubator, the fluorescence signal in the cells was observed by a fluorescence microscope. The cells were digested with trypsin to form single cells for detecting the fluorescence intensity via flow cytometry.

[2] = test system: macrophages differentiated from monocyte THP-1; assay: Phagocytosis of DiL-oxLDL by macrophages differentiated from THP-1 (fluorescence microscope, flow cytometry); type: cell-based, human; details: 10 μg/ml DiL-oxLDL, 5 h
Procedure: Experimental materials: sDSS1 protein, DiL-oxLDL, phorbol ester (PMA, Sigma Aldrich, Article No.: P1585), human monocyte THP-1 (Cell Bank of Typical Culture Preservation Committee of Chinese Academy of Sciences, Catalog No.: SCSP-567).
Experimental method: THP-1 cells were inoculated into a 6-well plate with 250000 cells per well, and the culture solution contained 100 ng/mL PMA. After being activated by PMA for 48 h, the cells were cultured in a fresh culture medium for 4 days to facilitate cell adhesion. The old culture medium was discarded. 1.5 ml 10 μg/ml DiL-oxLDL was added, or 1.5 ml 10 μg/ml DiL-oxLDL was added together with 2 μg/ml, 5 μg/ml, 10 μg/ml, or 20 μg/ml of the sDSS1 protein. After incubation for 5 h in an incubator, the fluorescence signal in the cells was observed by a fluorescence microscope. The cells were digested by trypsin to form single cells for detecting fluorescence intensity via flow cytometry.

Hep G2 cells [3] = assay: Uptake of DiL-oxLDL by Hep G2 cells (fluorescence microscope, flow cytometry); type: cell-based, human; details: 9 h
Procedure: (§3) Materials: sDSS1 protein, DiL-oxLDL, DiL-LDL (ThermoFisher, L3482), human hepatoma cell Hep G2 (Cell Bank of Typical Culture Preservation Committee of Chinese Academy of Sciences, Catalog Number: SCSP-510).
(§4) Experimental method: (1) When detecting the phagocytosis of oxLDL by Hep G2 cells, Hep G2 cells were inoculated into a 6-well plate with 250000 cells per well. After 12 h, all the cells were adhered. The old culture medium was discarded. 1.5 ml 10 μg/ml DiL-oxLDL was added, or 1.5 ml 10 μg/ml DiL-oxLDL was added together with 5 μg/ml and 50 μg/ml of the sDSS1 protein. After incubation for 9 h in the incubator, the fluorescence signal in the cells was observed by a fluorescence microscope. The cells were digested by trypsin to form single cells for detecting fluorescence intensity via flow cytometry. (2) When detecting the phagocytosis of LDL by Hep G2 cells, Hep G2 cells were inoculated into a 6-well plate with 250000 cells per well. After 12 h, all the cells were adhered. The old culture medium was discarded. 1.5 ml 10 μg/ml DiL-LDL was added, or 1.5 ml 10 μg/ml DiL-LDL was added together with 5 μg/ml and 50 μg/ml of the sDSS1 protein. After incubation for 10 h in the incubator, the fluorescence signal in the cells was observed by fluorescence microscope. The cells were digested by trypsin to form single cells for detecting fluorescence intensity via flow cytometry.

Hep G2 cells [4] = assay: Uptake of DiL-LDL by Hep G2 cells (fluorescence microscope, flow cytometry); type: cell-based, human; details: 10 h
Procedure: as §3, §4

[5] = 50 μg/ml sDSS1 protein, 10 μg/ml DiL-LDL

T1 sequence (P04114 28-4563): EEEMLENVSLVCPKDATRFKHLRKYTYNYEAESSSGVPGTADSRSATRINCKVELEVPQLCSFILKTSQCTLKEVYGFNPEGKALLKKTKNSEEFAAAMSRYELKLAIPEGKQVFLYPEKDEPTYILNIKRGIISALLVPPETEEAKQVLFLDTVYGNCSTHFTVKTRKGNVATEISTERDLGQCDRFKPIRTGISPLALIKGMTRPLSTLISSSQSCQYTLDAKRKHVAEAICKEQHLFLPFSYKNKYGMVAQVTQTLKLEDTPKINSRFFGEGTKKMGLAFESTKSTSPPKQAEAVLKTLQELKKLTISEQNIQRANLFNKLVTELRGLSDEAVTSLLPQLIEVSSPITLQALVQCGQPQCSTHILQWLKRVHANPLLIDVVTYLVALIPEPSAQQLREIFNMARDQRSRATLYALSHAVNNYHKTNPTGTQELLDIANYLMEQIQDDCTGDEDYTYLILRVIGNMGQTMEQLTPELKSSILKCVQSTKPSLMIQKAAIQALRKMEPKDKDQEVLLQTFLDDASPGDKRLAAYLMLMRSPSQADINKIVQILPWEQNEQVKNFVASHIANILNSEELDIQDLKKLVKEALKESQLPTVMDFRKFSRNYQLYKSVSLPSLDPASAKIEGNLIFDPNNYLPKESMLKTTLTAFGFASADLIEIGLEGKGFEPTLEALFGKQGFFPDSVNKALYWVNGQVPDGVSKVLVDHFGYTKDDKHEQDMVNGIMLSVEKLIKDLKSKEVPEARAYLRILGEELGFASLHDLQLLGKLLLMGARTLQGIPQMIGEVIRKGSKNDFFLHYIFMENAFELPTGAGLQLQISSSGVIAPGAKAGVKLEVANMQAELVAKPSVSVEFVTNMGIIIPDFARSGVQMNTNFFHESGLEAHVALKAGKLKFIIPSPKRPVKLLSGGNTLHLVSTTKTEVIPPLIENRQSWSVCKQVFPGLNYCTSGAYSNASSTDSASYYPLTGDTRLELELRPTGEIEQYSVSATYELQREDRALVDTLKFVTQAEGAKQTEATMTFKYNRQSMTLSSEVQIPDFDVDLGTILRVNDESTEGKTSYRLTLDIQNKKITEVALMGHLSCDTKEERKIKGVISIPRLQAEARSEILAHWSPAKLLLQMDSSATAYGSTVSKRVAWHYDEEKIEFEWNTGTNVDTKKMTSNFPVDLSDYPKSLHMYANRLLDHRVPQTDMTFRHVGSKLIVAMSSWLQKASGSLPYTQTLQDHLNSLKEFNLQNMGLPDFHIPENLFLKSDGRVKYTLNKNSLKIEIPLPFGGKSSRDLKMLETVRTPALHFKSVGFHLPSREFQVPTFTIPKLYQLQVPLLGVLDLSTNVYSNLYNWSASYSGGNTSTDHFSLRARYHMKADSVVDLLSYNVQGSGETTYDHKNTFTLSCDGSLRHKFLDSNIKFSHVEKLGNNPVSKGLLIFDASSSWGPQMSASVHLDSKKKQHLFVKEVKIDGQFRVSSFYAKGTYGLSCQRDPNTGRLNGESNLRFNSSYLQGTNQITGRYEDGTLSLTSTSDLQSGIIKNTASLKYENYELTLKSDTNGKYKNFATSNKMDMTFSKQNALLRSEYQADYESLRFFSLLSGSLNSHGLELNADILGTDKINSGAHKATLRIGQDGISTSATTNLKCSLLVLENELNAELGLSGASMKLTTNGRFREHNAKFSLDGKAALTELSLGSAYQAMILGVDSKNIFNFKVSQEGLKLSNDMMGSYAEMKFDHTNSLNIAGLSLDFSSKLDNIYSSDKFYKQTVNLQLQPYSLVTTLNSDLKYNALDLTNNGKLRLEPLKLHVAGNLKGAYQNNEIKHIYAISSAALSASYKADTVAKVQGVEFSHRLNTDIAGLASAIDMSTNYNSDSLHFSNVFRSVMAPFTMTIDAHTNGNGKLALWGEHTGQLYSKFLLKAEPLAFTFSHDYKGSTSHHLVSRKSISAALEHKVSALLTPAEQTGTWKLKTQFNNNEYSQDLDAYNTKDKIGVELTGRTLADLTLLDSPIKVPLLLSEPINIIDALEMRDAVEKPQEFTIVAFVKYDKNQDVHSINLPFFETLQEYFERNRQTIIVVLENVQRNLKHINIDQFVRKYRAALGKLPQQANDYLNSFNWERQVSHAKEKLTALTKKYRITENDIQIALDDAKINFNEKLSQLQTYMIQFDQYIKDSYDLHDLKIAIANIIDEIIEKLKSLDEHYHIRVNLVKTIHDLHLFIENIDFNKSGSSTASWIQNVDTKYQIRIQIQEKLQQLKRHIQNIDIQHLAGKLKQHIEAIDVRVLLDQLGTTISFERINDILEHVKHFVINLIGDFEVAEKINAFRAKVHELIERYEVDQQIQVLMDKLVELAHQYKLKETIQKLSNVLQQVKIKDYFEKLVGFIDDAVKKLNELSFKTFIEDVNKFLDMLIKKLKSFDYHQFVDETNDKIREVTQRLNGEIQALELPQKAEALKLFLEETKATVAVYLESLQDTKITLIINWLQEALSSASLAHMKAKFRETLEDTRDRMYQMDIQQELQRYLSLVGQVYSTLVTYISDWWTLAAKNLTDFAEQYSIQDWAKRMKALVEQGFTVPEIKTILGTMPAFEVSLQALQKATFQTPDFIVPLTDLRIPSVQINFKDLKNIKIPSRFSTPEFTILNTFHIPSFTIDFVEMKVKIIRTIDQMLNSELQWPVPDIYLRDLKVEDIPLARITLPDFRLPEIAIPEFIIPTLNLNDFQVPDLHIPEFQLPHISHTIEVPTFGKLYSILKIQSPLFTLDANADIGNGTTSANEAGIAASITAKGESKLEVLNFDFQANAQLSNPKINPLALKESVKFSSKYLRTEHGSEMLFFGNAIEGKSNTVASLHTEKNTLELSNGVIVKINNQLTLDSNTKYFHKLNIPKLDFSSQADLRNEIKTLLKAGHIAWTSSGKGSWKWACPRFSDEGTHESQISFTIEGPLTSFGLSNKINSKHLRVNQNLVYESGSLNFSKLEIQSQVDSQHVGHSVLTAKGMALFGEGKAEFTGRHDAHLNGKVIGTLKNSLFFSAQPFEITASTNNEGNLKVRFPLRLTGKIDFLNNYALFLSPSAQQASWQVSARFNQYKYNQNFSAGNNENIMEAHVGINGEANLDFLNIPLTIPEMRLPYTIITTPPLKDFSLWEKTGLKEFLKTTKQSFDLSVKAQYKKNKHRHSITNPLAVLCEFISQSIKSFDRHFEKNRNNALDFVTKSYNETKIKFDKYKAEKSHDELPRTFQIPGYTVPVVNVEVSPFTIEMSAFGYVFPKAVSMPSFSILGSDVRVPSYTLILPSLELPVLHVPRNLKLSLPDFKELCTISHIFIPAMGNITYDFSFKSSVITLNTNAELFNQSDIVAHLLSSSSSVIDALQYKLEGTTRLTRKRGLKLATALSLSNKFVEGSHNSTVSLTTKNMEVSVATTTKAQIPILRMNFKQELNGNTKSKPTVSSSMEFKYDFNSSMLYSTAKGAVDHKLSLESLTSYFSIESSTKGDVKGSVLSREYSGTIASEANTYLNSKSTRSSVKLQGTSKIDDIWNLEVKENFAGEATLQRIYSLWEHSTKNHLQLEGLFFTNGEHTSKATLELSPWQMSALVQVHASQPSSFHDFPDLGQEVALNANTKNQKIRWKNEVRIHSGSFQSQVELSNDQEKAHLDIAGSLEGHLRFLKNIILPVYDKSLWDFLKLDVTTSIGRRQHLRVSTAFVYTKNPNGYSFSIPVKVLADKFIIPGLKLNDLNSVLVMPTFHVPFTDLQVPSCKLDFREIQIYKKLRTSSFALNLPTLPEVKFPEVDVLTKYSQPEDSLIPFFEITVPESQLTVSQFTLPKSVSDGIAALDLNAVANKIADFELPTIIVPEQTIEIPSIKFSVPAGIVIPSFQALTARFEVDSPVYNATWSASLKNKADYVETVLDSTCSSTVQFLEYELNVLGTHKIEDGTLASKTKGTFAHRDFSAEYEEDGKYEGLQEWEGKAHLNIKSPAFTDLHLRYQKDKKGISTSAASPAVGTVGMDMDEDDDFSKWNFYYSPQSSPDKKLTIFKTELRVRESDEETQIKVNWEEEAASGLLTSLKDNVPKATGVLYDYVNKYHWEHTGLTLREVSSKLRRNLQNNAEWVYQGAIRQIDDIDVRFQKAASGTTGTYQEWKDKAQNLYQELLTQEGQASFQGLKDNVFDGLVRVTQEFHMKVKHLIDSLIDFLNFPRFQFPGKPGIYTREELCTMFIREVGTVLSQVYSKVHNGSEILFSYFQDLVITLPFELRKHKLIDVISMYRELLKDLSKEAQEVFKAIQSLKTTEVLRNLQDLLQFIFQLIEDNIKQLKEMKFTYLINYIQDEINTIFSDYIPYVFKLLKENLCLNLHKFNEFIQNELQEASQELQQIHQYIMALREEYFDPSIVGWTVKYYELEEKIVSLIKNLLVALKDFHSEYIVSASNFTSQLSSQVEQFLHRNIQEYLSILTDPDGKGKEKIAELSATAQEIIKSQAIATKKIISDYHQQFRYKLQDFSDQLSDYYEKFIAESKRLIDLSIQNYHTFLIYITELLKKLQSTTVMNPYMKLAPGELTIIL

B1: sDSS1 protein: sDSS1 protein produced by the company itself, purity more than 95%; sequence of human sDSS1 protein is SEQ ID NO:1 (protein, listed as Homo sapiens)
chain: MSEKKQPVDLGLLEEDDEFEEFPAEDWAGLDEDEDAHVWEDNWDDDNVEDDFSNQLRATVLLMILVCETPYGCYVLHQKGRMCSAFLCC
In the case of B1, the “Interaction with oxLDL (complex on SDS-PAGE gel)” value (oxLDL; phosphate buffer pH 7.2) is reported as “interacted with the sDSS1 protein; also recorded: resulted in interactions”, the “Interaction with oxLDL (complex on SDS-PAGE gel)” value (oxLDL; sodium acetate/acetic acid buffer pH 4.5, 37° C., 12 h) is reported as “interacted with the sDSS1 protein; also recorded: resulted in interactions” and the “Interaction with LDL (complex on SDS-PAGE gel)” value (LDL; phosphate buffer pH 7.2, 37° C.) is reported as “interacted with the sDSS1 protein; also recorded: resulted in interactions”. The “Interaction with LDL (complex on SDS-PAGE gel)” value (LDL; sodium acetate/acetic acid buffer pH 4.5, 37° C.) was “interacted with the sDSS1 protein; also recorded: resulted in interactions”, the “Fluorescence within HUVEC cells (flow cytometry)” value ([1]; 2 μg/ml sDSS1 protein) was “significantly weakened” and the “Uptake of oxLDL by HUVEC cells (flow cytometry statistics)” value ([1]; 2 μg/ml sDSS1 protein) was “reduced by half”. The “Fluorescence within HUVEC cells (flow cytometry)” value ([1]; 10 μg/ml sDSS1 protein) was “significantly weakened”, the “Concentration dependence of the reduction of fluorescence / oxLDL uptake in HUVEC cells” value ([1]; 2, 5, 10, 20 μg/ml sDSS1 protein) was “concentration-dependent; also recorded: gradually weakened; also recorded: obviously dose-dependent” and the “Macrophages having fluorescence (flow cytometry)” value ([2]; 2 μg/ml sDSS1 protein) was “not detected; also recorded: basically didn't appear”. The “Macrophages having fluorescence (flow cytometry)” value ([2]; 10 μg/ml sDSS1 protein) was “not detected; also recorded: basically didn't appear”, the “Fluorescence in macrophages (fluorescence microscope)” value ([2]; sDSS1 protein added (2 and 10 μg/ml)) was “no obvious fluorescence was observed in the cells, or the fluorescence was very weak; also recorded: basically no obvious fluorescent signals were observed” and the “DiL fluorescence level within Hep G2 cells, DiL-oxLDL (flow cytometry)” value (Hep G2 cells [3]; 5 μg/ml sDSS1, 10 μg/ml DiL-oxLDL) was “does not significantly affect; also recorded: did not significantly affect”. For the same molecule, the “DiL signal intensity in Hep G2 cells, DiL-oxLDL (flow cytometry)” value (Hep G2 cells [3]; 50 μg/ml sDSS1 protein, 10 μg/ml DiL-oxLDL) was “significantly increase”, the “Intensity of Dil fluorescence in Hep G2 cells, DiL-LDL (flow cytometry)” value (from here on “Intensity of Dil fluorescence”) (Hep G2 cells [4]; 5 μg/ml sDSS1, 10 μg/ml DiL-LDL) was “basically consistent” and the “Intensity of Dil fluorescence” value (Hep G2 cells [4]; 5 μg/ml sDSS1, 10 μg/ml DiL-LDL, listed as sDSS1) was “could not cause significant changes”. The “Quantity of Hep G2 cells uptaking DiL-LDL (fluorescence microscope)” value (from here on “Quantity”) (Hep G2 cells [4]; 5 μg/ml sDSS1 protein, 10 μg/ml DiL-LDL) was “not changed significantly”, the “Quantity” value (Hep G2 cells [4]; 5 μg/ml sDSS1 protein, 10 μg/ml DiL-LDL, listed as sDSS1) was “no significant difference” and the “Intensity of Dil fluorescence” value (Hep G2 cells [4]; [5]) was “basically consistent; also recorded: could not cause significant changes”. For the same molecule, the “Quantity” value (Hep G2 cells [4]; [5]) was “not changed significantly” and the “Quantity” value (Hep G2 cells [4]; 50 μg/ml sDSS1 protein, 10 μg/ml DiL-LDL, listed as sDSS1) was “no significant difference”.
